Residue numbers refer to the chain shown, from its start. Each block holds one binder with its values, some of them ahead of it.
How the values were obtained:
蛋白A [1] = biological target: T1, 蛋白A; test: sandwich ELISA, antibody coated at 2 μg/mL, protein at 5 and 10 ng/mL, detection with HRP mouse anti-human IgG4 Fc
T1 construct: also called FGF21-Fc融合蛋白
T1 chain: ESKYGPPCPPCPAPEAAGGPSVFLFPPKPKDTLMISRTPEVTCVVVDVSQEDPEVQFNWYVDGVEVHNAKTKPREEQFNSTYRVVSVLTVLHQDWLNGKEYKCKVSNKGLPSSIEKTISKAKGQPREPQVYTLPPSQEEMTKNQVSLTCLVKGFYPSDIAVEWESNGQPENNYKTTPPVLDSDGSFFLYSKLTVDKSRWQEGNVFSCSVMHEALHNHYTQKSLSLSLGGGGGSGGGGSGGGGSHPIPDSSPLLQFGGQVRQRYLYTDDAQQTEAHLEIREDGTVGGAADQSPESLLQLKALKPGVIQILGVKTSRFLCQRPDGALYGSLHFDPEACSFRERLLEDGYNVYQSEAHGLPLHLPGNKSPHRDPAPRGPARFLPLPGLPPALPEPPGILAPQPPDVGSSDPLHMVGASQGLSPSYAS

蛋白B [2] = biological target: T2, 蛋白B; test: sandwich ELISA, antibody coated at 2 μg/mL, detection with HRP mouse anti-human IgG4 Fc
T2 construct: Counter-screen protein; also called FGF21-Fc融合蛋白
T2 chain: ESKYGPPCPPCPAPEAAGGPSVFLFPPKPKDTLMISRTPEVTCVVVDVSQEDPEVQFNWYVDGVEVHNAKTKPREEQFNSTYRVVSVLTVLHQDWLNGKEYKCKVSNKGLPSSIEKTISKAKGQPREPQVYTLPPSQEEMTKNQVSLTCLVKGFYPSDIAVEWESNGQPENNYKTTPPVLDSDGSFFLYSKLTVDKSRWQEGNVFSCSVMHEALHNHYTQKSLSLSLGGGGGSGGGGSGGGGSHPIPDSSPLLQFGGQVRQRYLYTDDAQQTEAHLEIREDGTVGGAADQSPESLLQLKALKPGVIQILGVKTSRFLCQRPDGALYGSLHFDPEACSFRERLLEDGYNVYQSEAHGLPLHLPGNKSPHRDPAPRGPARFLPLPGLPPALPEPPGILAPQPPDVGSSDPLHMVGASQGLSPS

蛋白A [3] = biological target: T1, 蛋白A; test: ELISA, protein coated at 0.1, 1, 5 μg/mL, antibody 1 μg/mL
蛋白B [4] = biological target: T2, 蛋白B; test: ELISA, protein coated
蛋白B [5] = biological target: T2, 蛋白B; test: indirect ELISA, hybridoma supernatant on coated protein
蛋白A [6] = biological target: T1, 蛋白A; test: as above

binding result (蛋白A [3]): binds
B3: MM21T (antibody, mouse IgG1, kappa, V domains shown)
VH: QIQLVQSGPELKKTGETVKMSCKASGYTFTNYGMNWVKQAPGKGLKLMGWINTYTGKPTYADDFKGRFAFSLETSASTAYLQINNLKNEDTATYFCATNYYDYDVAYWGQGTLVTVSA
VL: DIVMTQAAFSNPVTLGTSASISCRSSKSLLHSNGITYLYWFLQKPGQSPQVLIYQMSSLASGVPDRFSSSGSGTDFTLRISRVEAEDVGVYYCAQTLELPTFGGGTKLEIKR
notes: only the CDRs are; also called MM21T重组抗体; MM21T抗体
binding result (蛋白B [4]): no binding (tested: antibody 1μg/mL; coating 0.1、1、5μg/mL)

binding result (蛋白B [5]): no binding
binding result (蛋白A [6]): binds
B4: MM24H (antibody, V domains shown)
VH: B3 VH with T14P, M20I, I83L, V105I, T115A
VL: DIVMTQAAFSNPVTLGTSASISCRSSKSLLHSNGITYLYWFLQKPGQSPQVLIYQMSNLASGVPDRFSSSGSGTDFTLRISRVEAEDVGVYYCAQTLELPTFGGGTKLEIK
notes: also called MM24H鼠源单克隆抗体

Second part, the binder before the results:

B1: MM21H (antibody, V domains shown)
VH: B3 VH
VL: B4 VL with N58S
notes: also called MM21H鼠源单克隆抗体
binding result (蛋白A [1]): binds
binding result (蛋白B [2]): no binding (tested: 5ng/mL、10ng/mL)

B2: MM24T (antibody, mouse IgG1, kappa, V domains shown)
VH: B3 VH with T14P, M20I, I83L, V105I, T115A
VL: B3 VL with S58N
notes: only the CDRs are; also called MM24T重组抗体; MM24T抗体
binding result (蛋白A [3]): binds
binding result (蛋白B [4]): no binding (tested: antibody 1μg/mL; coating 0.1、1、5μg/mL)

Source: CN114685654A (GUANGDONG DONGSUNANG PHARMACEUTICAL CO LTD, dated 2022)
